Test results from article doi:10.1101/2021.02.17.431757 (bioRxiv, 2021).

Target: GST-TopBP1 (aa 32-1522) His, recombinant (UniProt Q92547 32-1522)
Assay: pull-down

Chain of GST-TopBP1 (aa 32-1522) His, recombinant (Q92547 32-1522): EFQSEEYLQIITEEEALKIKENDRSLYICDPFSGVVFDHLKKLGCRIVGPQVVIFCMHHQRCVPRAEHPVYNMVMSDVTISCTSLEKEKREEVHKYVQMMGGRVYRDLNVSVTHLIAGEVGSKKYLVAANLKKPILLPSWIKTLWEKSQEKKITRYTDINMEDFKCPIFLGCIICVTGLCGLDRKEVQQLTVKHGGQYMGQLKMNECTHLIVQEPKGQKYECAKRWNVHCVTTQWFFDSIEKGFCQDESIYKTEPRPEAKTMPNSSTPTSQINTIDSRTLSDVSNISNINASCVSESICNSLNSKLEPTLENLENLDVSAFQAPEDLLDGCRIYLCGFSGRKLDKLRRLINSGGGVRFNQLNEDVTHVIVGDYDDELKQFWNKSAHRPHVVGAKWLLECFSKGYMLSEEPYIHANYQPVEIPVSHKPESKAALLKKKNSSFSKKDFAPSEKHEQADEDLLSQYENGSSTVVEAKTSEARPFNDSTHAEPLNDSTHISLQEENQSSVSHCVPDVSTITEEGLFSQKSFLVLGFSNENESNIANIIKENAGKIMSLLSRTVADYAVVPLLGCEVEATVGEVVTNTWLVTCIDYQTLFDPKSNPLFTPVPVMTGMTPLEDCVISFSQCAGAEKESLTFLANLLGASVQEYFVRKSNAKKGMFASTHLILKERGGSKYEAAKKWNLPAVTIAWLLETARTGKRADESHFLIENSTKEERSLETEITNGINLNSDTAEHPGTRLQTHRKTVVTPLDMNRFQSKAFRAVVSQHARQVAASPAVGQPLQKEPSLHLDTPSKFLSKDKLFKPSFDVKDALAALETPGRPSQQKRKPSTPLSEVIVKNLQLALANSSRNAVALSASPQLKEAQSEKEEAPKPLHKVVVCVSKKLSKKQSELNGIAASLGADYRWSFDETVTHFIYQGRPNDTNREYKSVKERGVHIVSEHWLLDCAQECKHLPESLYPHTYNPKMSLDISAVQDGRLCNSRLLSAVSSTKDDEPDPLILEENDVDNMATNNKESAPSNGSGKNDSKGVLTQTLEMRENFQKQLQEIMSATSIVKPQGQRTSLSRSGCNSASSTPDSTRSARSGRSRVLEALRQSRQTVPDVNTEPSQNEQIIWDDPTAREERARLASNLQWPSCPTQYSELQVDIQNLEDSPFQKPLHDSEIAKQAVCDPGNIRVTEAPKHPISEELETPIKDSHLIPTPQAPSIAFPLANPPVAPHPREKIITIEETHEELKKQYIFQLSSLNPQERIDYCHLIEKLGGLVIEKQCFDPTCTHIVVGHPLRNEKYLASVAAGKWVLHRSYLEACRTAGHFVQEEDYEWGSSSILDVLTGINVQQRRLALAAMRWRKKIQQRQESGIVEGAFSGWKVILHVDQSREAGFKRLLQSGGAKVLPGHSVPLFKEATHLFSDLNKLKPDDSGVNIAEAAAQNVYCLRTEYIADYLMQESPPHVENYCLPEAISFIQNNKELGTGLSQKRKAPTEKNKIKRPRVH

B1: His-E2-S23D (amino acids 1-200), recombinant (domain or fragment, human papillomavirus 16 (HPV16), UniProt P03120 1-200, looked up)
chain: METLCQRLNVCQDKILTHYENDDTDLRDHIDYWKHMRLECAIYYKAREMGFKHINHQVVPTLAVSKNKALQAIELQLTLETIYNSQYSNEKWTLQDVSLEVYLTAPTGCIKKHGYTVEVQFDGDICNTMHYTNWTHIYICEEASVTVVEGQVDYYGLYYVHEGIRTYFVQFKDDAEKYSKNKVWEVHAGGQVILCPTSVF
B1: binds.
